Measured values reported in the supplement of paper PMC9876800.

System: peptide library, one residue held at a place counted from the S/T acceptor
Test: relative phosphorylation of the sub-library (ratio to the mean residue at this position); higher = residue favoured
Settings: human
Method in brief: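 Each biotinylated degenerate peptide sub-library fixed one residue at one position around a central Ser/Thr and was incubated with a purified recombinant kinase, a human or orthologue construct, in 384-well plates. The 90 min reactions, under kinase-specific conditions, contained 50 μM peptide and 50 μM ATP spiked with γ-32P-ATP. Phosphorylation was read by phosphorimaging spots on streptavidin membranes and quantifying them by densitometry. Relative sub-library phosphorylation expresses each value as a ratio to the mean residue at that position.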

CAMK4, construct: Full length (from UniProt Q16566)
relative phosphorylation
Settings | at +1 | at +2 | at +3 | at +4 | at -1 | at -2 | at -3 | at -4 | at -5
A fixed | 0.518 | 0.587 | 0.723 | 0.805 | 0.66 | 0.761 | 0.61 | 0.815 | 0.598
D fixed | 0.574 | 0.588 | 0.925 | 0.978 | 0.92 | 0.327 | 0.27 | 0.479 | 0.347
E fixed | 0.727 | 0.483 | 0.846 | 0.999 | 0.722 | 0.386 | 0.404 | 0.705 | 0.364
F fixed | 3.32 | 0.95 | 1.12 | 1 | 1.02 | 0.667 | 0.559 | 1.01 | 1.75
G fixed | 0.745 | 0.525 | 0.905 | 0.847 | 0.692 | 0.573 | 0.566 | 0.861 | 0.631
H fixed | 0.86 | 1.99 | 1.19 | 1.08 | 1.18 | 1.3 | 1.32 | 1.17 | 0.781
I fixed | 0.95 | 1.24 | 0.874 | 0.837 | 0.711 | 0.484 | 0.449 | 0.865 | 1.22
K fixed | 0.738 | 0.848 | 0.896 | 0.942 | 1.35 | 2.46 | 2.9 | 1.67 | 1.02
L fixed | 0.822 | 1.25 | 1.04 | 1.06 | 1.05 | 0.547 | 0.432 | 1.01 | 1.85
M fixed | 1.23 | 1.15 | 1 | 0.978 | 0.99 | 0.783 | 0.671 | 1.17 | 1.3
N fixed | 0.977 | 1.08 | 1.21 | 1.14 | 1.36 | 1.06 | 0.723 | 0.962 | 0.651
P fixed | 0.167 | 0.652 | 0.919 | 1.24 | 1.09 | 0.38 | 0.706 | 0.642 | 0.827
Q fixed | 1.12 | 0.862 | 0.904 | 1.17 | 1.21 | 1.34 | 0.854 | 0.951 | 0.755
R fixed | 0.929 | 1.24 | 0.977 | 1.04 | 1.27 | 3.93 | 4.59 | 1.73 | 1.48
V fixed | 0.815 | 1.08 | 0.8 | 0.739 | 0.744 | 0.501 | 0.408 | 0.938 | 0.98
W fixed | 1.25 | 1.16 | 1.39 | 1.12 | 0.93 | 0.744 | 0.841 | 0.949 | 1.1
Y fixed | 1.26 | 1.33 | 1.27 | 1.03 | 1.1 | 0.756 | 0.695 | 1.09 | 1.35
pThr fixed | 0.934 | 0.905 | 0.892 | 1.02 | 0.56 | 0.621 | 0.672 | 0.718 | 0.63
pTyr fixed | 0.811 | 0.793 | 0.936 | 0.824 | 1.09 | 0.424 | 0.482 | 0.653 | 0.661
